First the molecules themselves.
B1: anti-TR-2 antibody D (antibody, V domains shown)
VH: QVQLQESGPGLVKPSQTLSLTCTVSGGSISSGGHYWSWIRQHPGKGLEWIGYIYYSGSAYYNPSLKSRVTISVDTSKNQFSLKLSSVTAADTAVYYCARDDSSGWGFDYWGQGILVTVSS
VL: DIQMTQSPSSLSASVGDRVTITCRASQGLRNDLGWFQQKPGKAPKRLIYAASSLQRGVPSRFSGSGSGTEFTLTISSLQPEDFTTYFCLQHNSFPWTFGQGTKVEIK
notes: Human antibody from XenoMouse; also called Ab D
B2: anti-TR-2 antibody C (antibody, V domains shown)
VH: QVQLQESGPGLVKPSQTLSLTCTVSGGSISSGGHYWSWIRQHPGKGLEWIGYIYYSGSAYYNPSLKSRVTISVDTSKNQFSLKLSSVTAADTAVYYCARDDSSGWGFDYWGQGILVTVSS
VL: DIQMTQSPSSLSASVGDRVTITCRASQGLRNDLGWFQQKPGKAPKRLIYAASSLQRGVPSRFSGSGSGTEFTLTISSLQPEDFTTYFCLQHNSFPWTFGQGTKVEIK
notes: Human antibody from XenoMouse; also called Ab C
B3: anti-TR-2 antibody B (antibody, V domains shown)
VH: QVQLQESGPGLVKPSQTLSLTCTVSGGSISSGGHYWSWIRQHPGKGLEWIGYIYYSGSTYYNPSLKSRVTISVDTSKNQFSLKLSSVTAADTAVYYCARDDSSGWGFDYWGQGILVTVSS
VL: DIQMTQSPSSLSASVGDRVTITCRASQGLRNDLGWFQQKPGKVTKRLIYAASSLQRGVPSRFSGSGSGTEFTLTISSLQPEDFATYYCLQHYSFPWTFGQGTKVEIK
notes: Human antibody from XenoMouse; also called Ab B
B4: anti-TR-2 antibody H (antibody, V domains shown)
VH: QVQLQESGPGLVKPSQTLSLTCTVSGGSISSDNYYWSWIRQHPGKGLEWIGYIYYSGSTYYNPSLKSRVTISVDTSKNQFSLKLSSVTAADTAVYYCARGVNWNFLFDIWGQGTMVTVSS
VL: not shown
notes: also called Ab H
B5: anti-TR-2 antibody I (antibody, V domains shown)
VH: QVQLVESGGGLVKPGGSLRLSCAASGFTFSDYYMSWIRQAPGKGLEWVSYISRSGSTIYYADSVKGRFTISRDNAKNSLYLQMNSLRAEDTAVYYCARSLGGMDVWGQGTTVTVSS
VL: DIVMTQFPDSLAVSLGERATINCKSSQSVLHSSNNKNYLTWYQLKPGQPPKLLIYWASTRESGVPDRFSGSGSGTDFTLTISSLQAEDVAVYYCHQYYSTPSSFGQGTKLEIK
notes: also called Ab I
B6: anti-TR-2 antibody E (antibody, V domains shown)
VH: QVQLVESGGGLVKPGGSLRLSCAASGFTFSDYYMNWIRQAPGKGLEWVSHISSSGSILDYADSVKGRFTISRDNAKNSLYLQMNSLRVEDTAVYYCARDGAAAGTDAFDLWGQGTMVTVSS
VL: DIQMTQSPSSLSASVGDRVTITCRSSQSISNYINWYQQRPGKAPNLLIHDVSSFQSAVPSRFSRSGSGTVFTLTISSLQPEDFATYFCQQTYITPFTFGPGTKVDIK
notes: also called Ab E
B7: anti-TR-2 antibody L (antibody, V domains shown)
VH: QVQLQQWGARLLKPSETLSLTCAVYGGSFSGYYWSWIRQPPGKGLEWIGEINHSGSTNYNPSLKSRVTISVDTSKNQFSLKLRSVTAADTAVYYCARGGSSGYWYFDLWGRGTLVTVSS
VL: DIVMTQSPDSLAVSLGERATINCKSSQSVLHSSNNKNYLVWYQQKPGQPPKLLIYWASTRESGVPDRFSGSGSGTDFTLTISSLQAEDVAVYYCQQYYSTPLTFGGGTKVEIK
notes: also called Ab L
B8: anti-TR-2 antibody A (antibody, V domains shown)
VH: QVQLVQSGAEVKKPGASVKVSCKASGYTFTSYDINWVRQATGQGLEWMGWMNPNSDNTGYAQKFQGRVTMTRNTSISTAYMELSSLRSEDTAVYYCARWNHYGSGSHFDYWGQGTLVTVSS
VL: DIQMTQSPSSLSASVGDRVTITCRASQSISIYLNWYQQKPGKAPKLLIYAASSLQSGVPLRFSGSGSGTDFTLTISSLQPEDIATYYCQQSYKTPLTFGGGTKVEIK
notes: also called Ab A
B9: anti-TR-2 antibody J (antibody, V domains shown)
VH: QVQLVESGGGVVQPGRSLRLSCAASGFTFNNYGMHWVRQAPGKGLEWVAVIWYDGSNKYYADSVKGRFTISRDNSKNTLYLQMNSLRAEDTAVYYCARDRTVYSNSSPFYYYYYGMDVWGQGTTVTVSS
VL: DIQMTQSPSSLSASVGDRVTITCRTSQSISTYLNWYQQKPGKAPKLLISATSSLQSGVPSRFSGSGSGTDFTLTISSLQPEDFATYYCQQSYSTPLTFGGGTKVEIK
notes: also called Ab J
B10: anti-TR-2 antibody K (antibody, V domains shown)
VH: QVQLVESGGGVVQPGRSLRLSCAASGFTFSTYGMHWVRQAPGKGLEWVAVIWYDGSNKYYADSVKGRFTISRDNSKNTLYLQMNSLRAEDTAVYYCARDRTVYSSSSPFYYYYYGMDVWGQGTTVTVSS
VL: DIQMTQSPSSLSASVGDRVTITCRASQSISSYLNWYQQKPGKAPKLLISATSSFQSGVPSRFSGSGSGTDFTLTISSLQPEDFAAYYCQQSYSTPLTFGGGTKVEIK
notes: also called Ab K
B11: anti-TR-2 antibody G (antibody, V domains shown)
VH: QVQAEQSGPGLVKPSETLSLTCTVSGGSISNYYWSWIRQPPGKGLEWIGYIYYSGSTKYNPSLKSRVTISVDTSKNQFSLKLTSVTTADTAVYYCARDSPRGFSGYEAFDSWGQGTLVTVSS
VL: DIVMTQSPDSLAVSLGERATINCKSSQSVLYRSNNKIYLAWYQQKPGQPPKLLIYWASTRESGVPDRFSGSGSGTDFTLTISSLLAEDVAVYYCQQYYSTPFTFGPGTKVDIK
notes: also called Ab G
B12: anti-TR-2 antibody O (antibody, V domains shown)
VH: QVQLQESGPGLVKPSQTLSLTCTVSGGSISSGDYFWSWIRQLPGKGLECIGHIHNSGTTYYNPSLKSRVTISVDTSKKQFSLRLSSVTAADTAVYYCARDRGGDYYYGMDVWGQGTTVTVSS
VL: EIVLTQSPGTLSLSPGERATLSCRASQGISRSYLAWYQQKPGQAPSLLIYGASSRATGIPDRFSGSGSGTDFTLTISRLEPEDFAVYYCQQFGSSPWTFGQGTKVEIK
notes: also called Ab O
B13: anti-TR-2 antibody F (antibody, V domains shown)
VH: QVQLVESGGGVVQPGRSLRLSCAASGFTFSYYGIHWVRQAPGKGLEWVAVIWYDGSNKYYADSVKGRFTISRDNSKNTLYLQMNSLRAEDTAVYYCARGRYSSSSWWYFDLWGRGTLVTVSS
VL: DIQMTQSPSSLSASVGDRVTITCRASQGISNYLAWYQQKPGKVPKLLIYAASTLQSGVPSRFSGSGSGTDFTLTISSLQPEDVATYYCQKYNSAPLTFGGGTKVEIK
notes: also called Ab F
B14: anti-TR-2 antibody M (antibody, V domains shown)
VH: EVQVVESGGGLVKPGGSLRLSCAASGFTFSSYSMNWVRQAPGKGLEWVSSISSSSSYIYYADSVKGRFTISRDNAKNSLYLQMNSLRAEDTAVYYCARGGSSWYGDWFDPWGQGTLVTVSS
VL: DIQMTQSPSSVSASVGDRVTITCRASQGISSWLVWYQQKPGKAPKLLIYAASSLQSGVPSRFSGSGSGTDFTLTISSLQPEDFATYYCQQANSFPFTFGGGTKVEIK
notes: also called Ab M
B15: anti-TR-2 antibody N (antibody, V domains shown)
VH: QLVESGGGVVQPGRSLRLSCAASGFTFSSYGMHWVRQAPGKGLEWVAVIWYDGRNKYYADSVKGRFTISRDNSKNTLYLQMNSLRAEDTAVYYCAREVGYCTNGVCSYYYYGMDVWGQGTTVTVSS
VL: DIQMTQSPSSLSASVGDRVTITCRASQGISNYLAWFQQKPGKAPKSLIYAASSLQSGVPSKFSGSGSGTDFTLTISSLQPEDFATYYCQQYNSYPLTFGGGTKVEIK
notes: also called Ab N
B16: anti-TR-2 antibody P (antibody, V domains shown)
VH: QVQLQESGPGLVKPSQTLSLTCSVSGGSISSGGYYWSWIRQHPGKGLEWIGYIYYSGSTYCNPSLKSRVTISVDTSKNQFSLKLSSVTAADTAVYYCARDNGSGSYDWFDPWGQGILVTVSS
VL: DIQMTQSPSSVSASVGDRVTITCRASQGISSWLAWYQQKPGKAPKFLIFVASSFQSGVPSRFSGSGSGTDFTLTISSLQPEDFATYYCQQANSFPRTFGQGTKVEIK
notes: Human antibody from XenoMouse; also called Ab P
B17: anti-TR-2 antibody Q (antibody, V domains shown)
VH: QVQMQESGPGLVKPSQTLSLTCTVSGGSISSGDYYWSWIRQHPGKNLEWIGYIYYSGSTYYNPSLKSRVTISVDTSKNQFSLKLSSVTAADTAVYYCARDNGSGSYDWFDPWGQGTLVTVSS
VL: DIQMTQSPSSVSASVGDRVTITCRASQGISSWLAWYQQKPGKAPKFLIFVASSLQSGVPSRFSGSGSGTDFTLTISSLQPEDFATYYCQQANSFPRTFGQGTKVEIK
notes: Human antibody from XenoMouse; also called Ab Q

The target of the first experiment is T1, recombinant human TR-2 with a C-terminal hexahistidine tag (TR-2-His) (human, UniProt O14763 56-207).
T1 construct: also called soluble TR-2-His
The experiment in a line: SPR Biacore 2000; antibody captured on anti-human antibody chip, 226 nM TR-2-His injected, 25 C, 1:1 model.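 Further: goat anti-human capture surface amine-coupled on CM5 chip, HBS-P running buffer with BSA, responses normalized to captured antibody level, kinetics from global 1:1 fitting.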
Protocol: (§1) The kinetics of the binding of anti-TR-2 antibodies A to Q to TR-2 was analyzed using a Biacore® 2000 instrument. High-density goat anti-human antibody surfaces were prepared on CM-5 Biacore® chips using routine amine coupling. Each purified anti-TR-2 antibody was diluted to approximately 1 μg/ml in HBS-P running buffer containing 100 μg/ml BSA. Each anti-TR-2 antibody was captured on a separate surface using a two minute contact time and a five minute wash to stabilize the anti-TR-2 antibody surface on the chip.
(§2) Additionally, the data for TR-2 binding to anti-TR-2 antibody were normalized for the amount of monoclonal antibody captured on each surface. Each data set was fit globally to a 1:1 interaction model to determine binding kinetics.
As to B1, the Kd amounted to 4.5 nM, the dissociation rate constant (koff) worked out at 0.0027 s⁻¹ and the on-rate constant (kon) is 620000 M⁻¹ s⁻¹.

Consider B2, for which the equilibrium dissociation constant (Kd) is 3.9 nM, the dissociation rate constant (koff) came out at 0.0026 s⁻¹ and the association rate constant (kon) worked out at 680000 M⁻¹ s⁻¹.

For B3, the dissociation constant (Kd) turned out to be 19 nM, the koff was found to be 0.011 s⁻¹ and the kon stood at 570000 M⁻¹ s⁻¹.

As for B4, the equilibrium dissociation constant (Kd) was found to be 9.8 nM, the dissociation rate constant (koff) was found to be 0.0084 s⁻¹ and the on-rate (kon) was 860000 M⁻¹ s⁻¹.

Take B5: the Kd amounted to 4.4 nM, the off-rate (koff) was found to be 0.0013 s⁻¹ and the kon is 290000 M⁻¹ s⁻¹.

Take B6: the Kd came to 2.1 nM, the off-rate constant (koff) is 0.0018 s⁻¹ and the on-rate constant (kon) amounted to 870000 M⁻¹ s⁻¹.

As to B7, the Kd was 18 nM, the koff came to 0.011 s⁻¹ and the kon is 600000 M⁻¹ s⁻¹.

In the case of B8, the Kd came to 6.9 nM, the off-rate constant (koff) came to 0.0037 s⁻¹ and the on-rate (kon) stood at 530000 M⁻¹ s⁻¹.

B9: the dissociation constant (Kd) worked out at 12 nM, the off-rate (koff) is 0.0071 s⁻¹ and the kon was determined as 570000 M⁻¹ s⁻¹.

As to B10, the Kd was 18 nM, the dissociation rate constant (koff) was 0.012 s⁻¹ and the kon turned out to be 680000 M⁻¹ s⁻¹.

As for B11, the dissociation constant Kd worked out at 31 nM, the koff is 0.019 s⁻¹ and the kon amounted to 600000 M⁻¹ s⁻¹.

As for B12, the dissociation constant Kd came out at 19 nM, the off-rate (koff) came to 0.0084 s⁻¹ and the association rate constant (kon) worked out at 440000 M⁻¹ s⁻¹.

B13: the Kd was determined as 13 nM, the koff came to 0.005 s⁻¹ and the kon was found to be 380000 M⁻¹ s⁻¹.

For the molecule B14, the Kd was 37 nM, the koff is 0.012 s⁻¹ and the on-rate constant (kon) came out at 340000 M⁻¹ s⁻¹.

For the next experiment, the target named is T1, recombinant human TR-2 with a …. The experiment in a line: SPR Biacore 2000; antibody captured on anti-human antibody chip, 226 nM TR-2-His injected, 25 C, 1:1 model; data heterogeneous, fit poorly.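 Further: goat anti-human capture surface amine-coupled on CM5 chip, HBS-P running buffer with BSA, responses normalized to captured antibody level, kinetics from global 1:1 fitting.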
Protocol: as §1, §2
Take B15: the dissociation constant Kd stood at 68 nM, the koff was 0.055 s⁻¹ and the kon was found to be 810000 M⁻¹ s⁻¹.

For the molecule B16, the Kd is 33 nM, the koff was 0.027 s⁻¹ and the kon came out at 810000 M⁻¹ s⁻¹.

As for B17, the dissociation constant Kd was 13 nM, the koff was found to be 0.016 s⁻¹ and the kon came to 1.2e+06 M⁻¹ s⁻¹.

As usually defined, the Kd is the equilibrium constant for the complex coming apart. For orientation: koff means the first-order rate constant of dissociation. One may read the kon as the second-order rate constant of association.

Source of the values: patent publication US20070179086A1 (Amgen, published 2007).
